The text below walks through data of US20250066503A1, “CELL INJURY INDUCING THERAPEUTIC DRUG FOR USE IN CANCER THERAPY” (CHUGAI SEIYAKU KABUSHIKI KAISHA, priority 2016, published 2025).

In the experiment the target is T1, soluble human CD3 epsilon chain (human, UniProt P07766 23-126).
T1 construct: also called CD3ε
The experiment in a line: SPR.

T1 sequence (P07766 23-126 limits assumed): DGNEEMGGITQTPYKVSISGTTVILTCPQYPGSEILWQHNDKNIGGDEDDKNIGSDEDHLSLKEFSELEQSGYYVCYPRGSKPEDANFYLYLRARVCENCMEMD

B1: TR01H040-E22Hh/none-Hi-Kn010G3/L0200-k0 (antibody, V domains shown)
VH: QVQLVESGGGLVQPGRSLRLSCAASGFTFSNAWMHWVRQAPGKGLEWVAQIKDKSQNYATYYAESVKGRFTISRADSKNSIYLQMNSLKTEDTAVYYCRYVHYSASYGVDAWGQGTTVTVSS
VL: DIVMTQSPLSLPVTPGEPASISCRPSQSPVHSNRNTYLHWYQQKPGQAPRLLIYKVSNRFSGVPDRFSGSGSGTDFTLKISRVEAEDVGVYYCGQGTQVPYTFGQGTKLEIK
notes: one-arm
B1: the Kd came to 28.7 nM.

B2: TR01H040-E22Hh/none-Hi-Kn010G3/L0202-k0 (antibody, V domains shown)
VH: QVQLVESGGGLVQPGRSLRLSCAASGFTFSNAWMHWVRQAPGKGLEWVAQIKDKSQNYATYYAESVKGRFTISRADSKNSIYLQMNSLKTEDTAVYYCRYVHYSASYGVDAWGQGTTVTVSS
VL: DIVMTQSPLSLPVTPGEPASISCRSSQSPVHSNRWTYLHWYQQKPGQAPRLLIYKVSNRFSGVPDRFSGSGSGTDFTLKISRVEAEDVGVYYCGQGTQVPYTFGQGTKLEIK
notes: one-arm
Take B2: the equilibrium dissociation constant (Kd) amounted to 61.9 nM.

B3: TR01H040-E22Hh/none-Hi-Kn010G3/L0224-k0 (antibody, V domains shown)
VH: QVQLVESGGGLVQPGRSLRLSCAASGFTFSNAWMHWVRQAPGKGLEWVAQIKDKSQNYATYYAESVKGRFTISRADSKNSIYLQMNSLKTEDTAVYYCRYVHYSASYGVDAWGQGTTVTVSS
VL: DIVMTQSPLSLPVTPGEPASISCRSSQSPVHSNRNTYIHWYQQKPGQAPRLLIYKVSNRFPGVPDRFSGSGSGTDFTLKISRVEAEDVGVYYCYQGTQVPYTFGQGTKLEIK
notes: one-arm
B3 gave a dissociation constant (Kd) of 5.06 nM.

B4: TR01H040-E22Hh/none-Hi-Kn010G3/L0223-k0 (antibody, V domains shown)
VH: QVQLVESGGGLVQPGRSLRLSCAASGFTFSNAWMHWVRQAPGKGLEWVAQIKDKSQNYATYYAESVKGRFTISRADSKNSIYLQMNSLKTEDTAVYYCRYVHYSASYGVDAWGQGTTVTVSS
VL: DIVMTQSPLSLPVTPGEPASISCRSSQSPVHSNRNTYIHWYQQKPGQAPRLLIYKVSNRLSGVPDRFSGSGSGTDFTLKISRVEAEDVGVYYCYQGTQVPYTFGQGTKLEIK
notes: one-arm
In turn, B4 displayed a Kd of 8.15 nM.

B5: TR01H040-E22Hh/none-Hi-Kn010G3/L0205-k0 (antibody, V domains shown)
VH: QVQLVESGGGLVQPGRSLRLSCAASGFTFSNAWMHWVRQAPGKGLEWVAQIKDKSQNYATYYAESVKGRFTISRADSKNSIYLQMNSLKTEDTAVYYCRYVHYSASYGVDAWGQGTTVTVSS
VL: DIVMTQSPLSLPVTPGEPASISCRSSQSPVHSNRNTYLHWYQQKPGQAPRLLIYKVSNRFWGVPDRFSGSGSGTDFTLKISRVEAEDVGVYYCGQGTQVPYTFGQGTKLEIK
notes: one-arm
B5 yielded a Kd of 34.2 nM.

B6: TR01H040-E22Hh/none-Hi-Kn010G3/L0232-k0 (antibody, V domains shown)
VH: QVQLVESGGGLVQPGRSLRLSCAASGFTFSNAWMHWVRQAPGKGLEWVAQIKDKSQNYATYYAESVKGRFTISRADSKNSIYLQMNSLKTEDTAVYYCRYVHYSASYGVDAWGQGTTVTVSS
VL: DIVMTQSPLSLPVTPGEPASISCRSSESLVHSNRNTYLHWYQQKPGQAPRLLIYKVSNRFSGVPDRFSGSGSGTDFTLKISRVEAEDVGVYYCGQGTQVPYTFGQGTKLEIK
notes: one-arm
As for B6, the Kd is 38.6 nM.

B7: TR01H040-E22Hh/none-Hi-Kn010G3/L0210-k0 (antibody, V domains shown)
VH: QVQLVESGGGLVQPGRSLRLSCAASGFTFSNAWMHWVRQAPGKGLEWVAQIKDKSQNYATYYAESVKGRFTISRADSKNSIYLQMNSLKTEDTAVYYCRYVHYSASYGVDAWGQGTTVTVSS
VL: DIVMTQSPLSLPVTPGEPASISCRSSQSPVHSNRWTYLHWYQQKPGQAPRLLIYKVSNRFSGVPDRFSGSGSGTDFTLKISRVEAEDVGVYYCYQGTQVPYTFGQGTKLEIK
notes: one-arm
Turning to B7, the Kd turned out to be 5.06 nM.

B8: TR01H040-E22Hh/none-Hi-Kn010G3/L0217-k0 (antibody, V domains shown)
VH: QVQLVESGGGLVQPGRSLRLSCAASGFTFSNAWMHWVRQAPGKGLEWVAQIKDKSQNYATYYAESVKGRFTISRADSKNSIYLQMNSLKTEDTAVYYCRYVHYSASYGVDAWGQGTTVTVSS
VL: DIVMTQSPLSLPVTPGEPASISCRPSQSLVHSNRNTYLHWYQQKPGQAPRLLIYKVSNRFRGVPDRFSGSGSGTDFTLKISRVEAEDVGVYYCGQGTQVPYTFGQGTKLEIK
notes: one-arm
B8 came in with a Kd of 20.7 nM.

B9: TR01H040-E22Hh/none-Hi-Kn010G3/L0216-k0 (antibody, V domains shown)
VH: QVQLVESGGGLVQPGRSLRLSCAASGFTFSNAWMHWVRQAPGKGLEWVAQIKDKSQNYATYYAESVKGRFTISRADSKNSIYLQMNSLKTEDTAVYYCRYVHYSASYGVDAWGQGTTVTVSS
VL: DIVMTQSPLSLPVTPGEPASISCRSSQPLVHSNRNTYLHWYQQKPGQAPRLLIYKVSNRFRGVPDRFSGSGSGTDFTLKISRVEAEDVGVYYCGQGTQVPYTFGQGTKLEIK
notes: one-arm
B9 gave a Kd of 25.3 nM.

B10: TR01H040-E22Hh/none-Hi-Kn010G3/L0213-k0 (antibody, V domains shown)
VH: QVQLVESGGGLVQPGRSLRLSCAASGFTFSNAWMHWVRQAPGKGLEWVAQIKDKSQNYATYYAESVKGRFTISRADSKNSIYLQMNSLKTEDTAVYYCRYVHYSASYGVDAWGQGTTVTVSS
VL: DIVMTQSPLSLPVTPGEPASISCRSSQSPVHSNRNTYIHWYQQKPGQAPRLLIYKVSNRFRGVPDRFSGSGSGTDFTLKISRVEAEDVGVYYCGQGTQVPYTFGQGTKLEIK
notes: one-arm
Molecule B10 showed a Kd of 20.1 nM.

B11: TR01H040-E22Hh/none-Hi-Kn010G3/L0231-k0 (antibody, V domains shown)
VH: QVQLVESGGGLVQPGRSLRLSCAASGFTFSNAWMHWVRQAPGKGLEWVAQIKDKSQNYATYYAESVKGRFTISRADSKNSIYLQMNSLKTEDTAVYYCRYVHYSASYGVDAWGQGTTVTVSS
VL: DIVMTQSPLSLPVTPGEPASISCRSSQSPVHSNRNTYIHWYQQKPGQAPRLLIYKVSNRFSGVPDRFSGSGSGTDFTLKISRVEAEDVGVYYCYQGTQWPYTFGQGTKLEIK
notes: one-arm
On to B11, for which the affinity, expressed as Kd, was 7.75 nM.

B12: TR01H040-E22Hh/none-Hi-Kn010G3/L0227-k0 (antibody, V domains shown)
VH: QVQLVESGGGLVQPGRSLRLSCAASGFTFSNAWMHWVRQAPGKGLEWVAQIKDKSQNYATYYAESVKGRFTISRADSKNSIYLQMNSLKTEDTAVYYCRYVHYSASYGVDAWGQGTTVTVSS
VL: DIVMTQSPLSLPVTPGEPASISCRSSQSPVHSNRNTYIHWYQQKPGQAPRLLIYKVSNRFSGVPDRFSGSGSGTDFTLKISRVEAEDVGVYYCLQGTQVPYTFGQGTKLEIK
notes: one-arm
As to B12, the Kd was found to be 101 nM.

B13: TR01H040-E22Hh/none-Hi-Kn010G3/L0219-k0 (antibody, V domains shown)
VH: QVQLVESGGGLVQPGRSLRLSCAASGFTFSNAWMHWVRQAPGKGLEWVAQIKDKSQNYATYYAESVKGRFTISRADSKNSIYLQMNSLKTEDTAVYYCRYVHYSASYGVDAWGQGTTVTVSS
VL: DIVMTQSPLSLPVTPGEPASISCRSSQSLVHSNRNTYIHWYQQKPGQAPRLLIYKVSNRFRGVPDRFSGSGSGTDFTLKISRVEAEDVGVYYCGQGTQVPYTFGQGTKLEIK
notes: one-arm
On to B13, for which the Kd is 39.4 nM.

B14: TR01H040-E22Hh/none-Hi-Kn010G3/L0226-k0 (antibody, V domains shown)
VH: QVQLVESGGGLVQPGRSLRLSCAASGFTFSNAWMHWVRQAPGKGLEWVAQIKDKSQNYATYYAESVKGRFTISRADSKNSIYLQMNSLKTEDTAVYYCRYVHYSASYGVDAWGQGTTVTVSS
VL: DIVMTQSPLSLPVTPGEPASISCRSSQSPVHSNRNTYIHWYQQKPGQAPRLLIYKVSNRFSGVPDRFSGSGSGTDFTLKISRVEAEDVGVYYCIQGTQVPYTFGQGTKLEIK
notes: one-arm
In the case of B14, binding was characterised by a dissociation constant (Kd) of 80.1 nM.

B15: TR01H040-E22Hh/none-Hi-Kn010G3/L0218-k0 (antibody, V domains shown)
VH: QVQLVESGGGLVQPGRSLRLSCAASGFTFSNAWMHWVRQAPGKGLEWVAQIKDKSQNYATYYAESVKGRFTISRADSKNSIYLQMNSLKTEDTAVYYCRYVHYSASYGVDAWGQGTTVTVSS
VL: DIVMTQSPLSLPVTPGEPASISCRSSQSLVHSNRNTYLHWYQQKPGQAPRLLIYKVSNRFRGVPDRFSGSGSGTDFTLKISRVEAEDVGVYYCYQGTQVPYTFGQGTKLEIK
notes: one-arm
B15 registered a Kd of 8.2 nM. Compared with the last molecule, the Kd is about 9.8-fold lower.

B16: TR01H040-E22Hh/none-Hi-Kn010G3/L0220-k0 (antibody, V domains shown)
VH: QVQLVESGGGLVQPGRSLRLSCAASGFTFSNAWMHWVRQAPGKGLEWVAQIKDKSQNYATYYAESVKGRFTISRADSKNSIYLQMNSLKTEDTAVYYCRYVHYSASYGVDAWGQGTTVTVSS
VL: DIVMTQSPLSLPVTPGEPASISCRSSQPLVHSNRNTYLHWYQQKPGQAPRLLIYKVSNRFRGVPDRFSGSGSGTDFTLKISRVEAEDVGVYYCYQGTQVPYTFGQGTKLEIK
notes: one-arm
B16 came in with a Kd of 9.15 nM. The Kd values of the last two molecules are within 1.5-fold of each other.

B17: TR01H040-E22Hh/none-Hi-Kn010G3/L0214-k0 (antibody, V domains shown)
VH: QVQLVESGGGLVQPGRSLRLSCAASGFTFSNAWMHWVRQAPGKGLEWVAQIKDKSQNYATYYAESVKGRFTISRADSKNSIYLQMNSLKTEDTAVYYCRYVHYSASYGVDAWGQGTTVTVSS
VL: DIVMTQSPLSLPVTPGEPASISCRSSQPPVHSNRNTYLHWYQQKPGQAPRLLIYKVSNRFRGVPDRFSGSGSGTDFTLKISRVEAEDVGVYYCGQGTQVPYTFGQGTKLEIK
notes: one-arm
The molecule B17 displayed a Kd of 20.2 nM.

B18: TR01H040-E22Hh/none-Hi-Kn010G3/L0228-k0 (antibody, V domains shown)
VH: QVQLVESGGGLVQPGRSLRLSCAASGFTFSNAWMHWVRQAPGKGLEWVAQIKDKSQNYATYYAESVKGRFTISRADSKNSIYLQMNSLKTEDTAVYYCRYVHYSASYGVDAWGQGTTVTVSS
VL: DIVMTQSPLSLPVTPGEPASISCRSSQSPVHSNRNTYIHWYQQKPGQAPRLLIYKVSNRFSGVPDRFSGSGSGTDFTLKISRVEAEDVGVYYCVQGTQVPYTFGQGTKLEIK
notes: one-arm
With B18, binding was characterised by a dissociation constant (Kd) of 16 nM.

B19: TR01H040-E22Hh/none-Hi-Kn010G3/L0233-k0 (antibody, V domains shown)
VH: QVQLVESGGGLVQPGRSLRLSCAASGFTFSNAWMHWVRQAPGKGLEWVAQIKDKSQNYATYYAESVKGRFTISRADSKNSIYLQMNSLKTEDTAVYYCRYVHYSASYGVDAWGQGTTVTVSS
VL: DIVMTQSPLSLPVTPGEPASISCRSSQELVHSNRNTYLHWYQQKPGQAPRLLIYKVSNRFSGVPDRFSGSGSGTDFTLKISRVEAEDVGVYYCGQGTQVPYTFGQGTKLEIK
notes: one-arm
The molecule B19 had a Kd of 40.1 nM. Against the preceding molecule, the Kd is about 2.5-fold higher.

B20: TR01H040-E22Hh/none-Hi-Kn010G3/L0215-k0 (antibody, V domains shown)
VH: QVQLVESGGGLVQPGRSLRLSCAASGFTFSNAWMHWVRQAPGKGLEWVAQIKDKSQNYATYYAESVKGRFTISRADSKNSIYLQMNSLKTEDTAVYYCRYVHYSASYGVDAWGQGTTVTVSS
VL: DIVMTQSPLSLPVTPGEPASISCRSSQPPVHSNRNTYIHWYQQKPGQAPRLLIYKVSNRFSGVPDRFSGSGSGTDFTLKISRVEAEDVGVYYCGQGTQVPYTFGQGTKLEIK
notes: one-arm
B20 gave a Kd of 33.7 nM.

B21: TR01H040-E22Hh/none-Hi-Kn010G3/L0207-k0 (antibody, V domains shown)
VH: QVQLVESGGGLVQPGRSLRLSCAASGFTFSNAWMHWVRQAPGKGLEWVAQIKDKSQNYATYYAESVKGRFTISRADSKNSIYLQMNSLKTEDTAVYYCRYVHYSASYGVDAWGQGTTVTVSS
VL: DIVMTQSPLSLPVTPGEPASISCRSSQSPVHSNRNTYLHWYQQKPGQAPRLLIYKVSNRFRGVPDRFSGSGSGTDFTLKISRVEAEDVGVYYCYQGTQVPYTFGQGTKLEIK
notes: one-arm
Turning to B21, the Kd turned out to be 2.6 nM.
